What was measured:
[1] = molecular target: T1, human BAFF (10056-HNCH, Sino biological) (human, UniProt Q9Y275 134-285); experiment: ELISA, BAFF coated
T1 construct: Bought protein

[2] = molecular target: T2, human APRIL (5860-AP-010/CF, R&D Systems) (human, UniProt O75888 115-250, limits assumed); experiment: ELISA, APRIL coated
T2 construct: Bought protein
T2 sequence (looked up): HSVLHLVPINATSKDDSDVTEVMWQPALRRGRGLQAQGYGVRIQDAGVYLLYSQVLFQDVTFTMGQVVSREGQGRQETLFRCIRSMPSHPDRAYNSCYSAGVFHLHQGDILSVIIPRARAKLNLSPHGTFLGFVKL

[3] = molecular target: T3, IL-23 (R&D Systems, 1290-IL-010) (UniProt Q9NPF7 20-189; P29460 23-328); experiment: cell-based or functional assay
T3 sequence (looked up) 1: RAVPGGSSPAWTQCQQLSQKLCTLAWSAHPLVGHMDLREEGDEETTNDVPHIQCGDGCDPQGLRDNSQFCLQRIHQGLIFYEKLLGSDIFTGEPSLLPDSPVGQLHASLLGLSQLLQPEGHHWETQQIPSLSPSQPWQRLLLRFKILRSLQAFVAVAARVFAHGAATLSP
T3 sequence (looked up) 2: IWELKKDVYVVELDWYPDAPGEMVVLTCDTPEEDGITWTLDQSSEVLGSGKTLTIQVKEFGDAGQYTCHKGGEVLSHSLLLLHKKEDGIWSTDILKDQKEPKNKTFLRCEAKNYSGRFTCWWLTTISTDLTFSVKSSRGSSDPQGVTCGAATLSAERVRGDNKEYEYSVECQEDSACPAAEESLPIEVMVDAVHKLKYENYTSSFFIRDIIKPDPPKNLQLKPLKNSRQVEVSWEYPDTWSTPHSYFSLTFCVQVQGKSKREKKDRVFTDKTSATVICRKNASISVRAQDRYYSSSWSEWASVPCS

[4] = molecular target: T4, IL-12/23 p40 (Sino biological, 10052-H08H) (UniProt P29460 23-328); experiment: ELISA, IL-12/23 p40 coated, sample titrated
T4 construct: Bought protein
T4 sequence (looked up): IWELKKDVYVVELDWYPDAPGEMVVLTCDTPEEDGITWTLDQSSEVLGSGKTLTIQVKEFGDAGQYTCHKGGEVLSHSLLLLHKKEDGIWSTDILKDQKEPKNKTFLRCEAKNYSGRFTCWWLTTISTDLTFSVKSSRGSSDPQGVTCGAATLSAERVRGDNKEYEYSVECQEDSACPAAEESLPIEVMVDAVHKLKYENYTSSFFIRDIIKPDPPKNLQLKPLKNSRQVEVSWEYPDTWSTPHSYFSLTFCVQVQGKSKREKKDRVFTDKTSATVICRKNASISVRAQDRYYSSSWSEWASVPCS
Procedure: The binding activity of the antibodies or fusion proteins for BAFF, APRIL, and IL-12/23 p40 was assayed by the ELISA method (coating an antigen protein). The specific procedures were as follows:
A BAFF (Sino biological, 10056-HNCH), APRIL (R&D Systems, 5860-AP-010/CF), or IL-12/23 p40 (Sino biological, 10052-H08H) protein was diluted to 1 μg/mL with a PBS (BasalMedia, B320) buffer at pH 7.4, and added to a 96-well microplate (Corning, 3590) at 100 μL/well. The plate was incubated at 4° C. overnight. After the liquid was discarded, 300 μL of 5% skim milk (BD, 232100) diluted with PBS was added to each well for blocking, and the plate was incubated at 37° C. for 2 h. After the blocking was completed, the blocking solution was discarded, and the plate was washed 3 times with a PBST buffer (PBS at pH 7.4 containing 0.1% tween-20). 100 μL of test antibody or fusion protein solution diluted in a gradient was added to each well, and the plate was incubated at 37° C. for 1 h. After the incubation was completed, the plate was washed 3 times with PBST. […] The plate was washed 3 times with PBST. […] The plate was read for absorbance values at 450 nm on a microplate reader, the binding curves of the antibodies to an antigen were fitted with software, and the EC₅₀ values were calculated.

[5] = molecular target: T4, IL-12/23 p40 (Sino biological, …); experiment: competition ELISA: biotin-labeled p40 to coated IL-12Rβ1
Procedure: A receptor protein was diluted to 2 μg/mL with PBS at pH 7.4 (BasalMedia, B320) and added to a 96-well microplate (Corning, 3590) at 100 μL/well. The plate was incubated at 4° C. overnight. After the liquid was discarded, 200 μL of 1% Casein blocking solution (Thermo, 37528) was added to each well for blocking, and the plate was incubated at 37° C. for 2 h. After the blocking was completed, the blocking solution was discarded, and the plate was washed 3 times with a PBST buffer (PBS at pH 7.4 containing 0.1% tween-20) for later use. A biotin-labeled ligand protein at a fixed concentration was mixed with the antibody or fusion protein diluted in gradient, pre-incubated at 37° C. for 30 min, and added to a blocked microplate. The plate was incubated at 37° C. for 1.5 h. After the incubation was completed, the plate was washed 3 times with PBST. 100 μL of streptavidin-HRP (Invitrogen, 434323, diluted at a ratio of 1:4000) was added to each well, and the plate was incubated at 37° C. for 1 h. The supernatant was removed, and the plate was washed 3 times with PBST. […] The plate was read for absorbance values at 450 nm on a microplate reader, the curves for the inhibition of the binding of the ligands to the receptors were fitted with software, and the IC₅₀ values were calculated. […]

[6] = molecular target: T5, human IL-23 (CT048-H08H, Sino biological) (human, UniProt Q9NPF7 20-189; P29460 23-328); experiment: SPR (Biacore), sample captured on Protein A, antigen flowed, 1:1 fit
T5 construct: Bought heterodimer
T5 sequence (looked up) 1: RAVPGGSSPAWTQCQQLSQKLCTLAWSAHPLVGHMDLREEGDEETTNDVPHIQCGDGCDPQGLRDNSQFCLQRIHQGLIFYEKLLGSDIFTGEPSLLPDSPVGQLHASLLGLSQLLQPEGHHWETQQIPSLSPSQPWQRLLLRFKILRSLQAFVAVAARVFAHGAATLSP
T5 sequence (looked up) 2: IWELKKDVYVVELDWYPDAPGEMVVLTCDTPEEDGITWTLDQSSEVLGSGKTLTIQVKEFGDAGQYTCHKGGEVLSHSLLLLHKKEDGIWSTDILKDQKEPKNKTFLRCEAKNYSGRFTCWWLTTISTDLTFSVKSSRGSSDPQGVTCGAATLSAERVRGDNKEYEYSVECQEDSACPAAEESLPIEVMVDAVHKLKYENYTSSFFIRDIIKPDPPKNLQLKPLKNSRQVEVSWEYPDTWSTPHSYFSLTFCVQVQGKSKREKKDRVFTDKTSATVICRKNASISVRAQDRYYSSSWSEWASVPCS

[7] = molecular target: T6, human IL-12 (CT050-H08H, Sino biological) (human, UniProt P29459 23-219; P29460 23-328); experiment: as above
T6 construct: Bought heterodimer
T6 sequence (looked up) 1: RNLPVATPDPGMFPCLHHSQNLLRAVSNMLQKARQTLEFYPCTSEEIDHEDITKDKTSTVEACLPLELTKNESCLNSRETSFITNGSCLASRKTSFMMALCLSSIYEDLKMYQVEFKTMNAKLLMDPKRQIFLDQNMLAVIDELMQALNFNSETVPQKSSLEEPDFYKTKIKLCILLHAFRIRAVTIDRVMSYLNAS
T6 sequence (looked up) 2: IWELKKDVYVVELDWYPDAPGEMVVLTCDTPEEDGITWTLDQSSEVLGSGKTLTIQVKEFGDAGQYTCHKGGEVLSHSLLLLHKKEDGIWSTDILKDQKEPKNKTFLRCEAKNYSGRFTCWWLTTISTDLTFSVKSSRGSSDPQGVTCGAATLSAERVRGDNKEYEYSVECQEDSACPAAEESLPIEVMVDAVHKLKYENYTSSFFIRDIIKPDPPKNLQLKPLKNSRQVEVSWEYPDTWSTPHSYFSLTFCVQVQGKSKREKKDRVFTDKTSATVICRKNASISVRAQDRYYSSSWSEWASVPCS

[8] = molecular target: T7, cynomolgus monkey p40 (10215-CL, R&D Systems) (cynomolgus monkey); experiment: as above
T7 construct: Bought protein

B1: Ustekinumab (antibody, human IgG1, kappa, V domains shown)
VH: EVQLVQSGAEVKKPGESLKISCKGSGYSFTTYWLGWVRQMPGKGLDWIGIMSPVDSDIRYSPSFQGQVTMSVDKSITTAYLQWNSLKASDTAMYYCARRRPGQGYFDFWGQGTLVTVSS
VL: DIQMTQSPSSLSASVGDRVTITCRASQGISSWLAWYQQKPEKAPKSLIYAASSLQSGVPSRFSGSGSGTDFTLTISSLQPEDFATYYCQQYNIYPYTFGQGTKLEIKR
notes: Control antibody; also called anti-IL-12/IL-23 p40 subunit antibody ustekinumab
binding result [1]: no binding
binding result [2]: no binding
IC50 (nM) for the inhibition of IL-23-induced IL-17 secretion [3]: 2.49 nM
EC50 [4]: 0.786 nM
IC50 [5]: 2.08 nM
Kd [6]: 0.0844 nM
koff [6]: 0.000107 s⁻¹
kon [6]: 1.26e+06 M⁻¹ s⁻¹
Kd [7]: 0.0387 nM
koff [7]: 0.00018 s⁻¹
kon [7]: 4.66e+06 M⁻¹ s⁻¹
Kd [8]: 0.254 nM
koff [8]: 0.000236 s⁻¹
kon [8]: 931000 M⁻¹ s⁻¹

Source: patent US20240301031A1 (JIANGSU HENGRUI PHARMACEUTICALS, published 2024)
